Test results published in publication PMC9352680, “A comprehensive thermodynamic model for RNA binding by the Saccharomyces cerevisiae Pumilio protein PUF4”.

T1: PUF4 RNA-binding domain (Saccharomyces cerevisiae, UniProt P25339 537-888)
T1 sequence: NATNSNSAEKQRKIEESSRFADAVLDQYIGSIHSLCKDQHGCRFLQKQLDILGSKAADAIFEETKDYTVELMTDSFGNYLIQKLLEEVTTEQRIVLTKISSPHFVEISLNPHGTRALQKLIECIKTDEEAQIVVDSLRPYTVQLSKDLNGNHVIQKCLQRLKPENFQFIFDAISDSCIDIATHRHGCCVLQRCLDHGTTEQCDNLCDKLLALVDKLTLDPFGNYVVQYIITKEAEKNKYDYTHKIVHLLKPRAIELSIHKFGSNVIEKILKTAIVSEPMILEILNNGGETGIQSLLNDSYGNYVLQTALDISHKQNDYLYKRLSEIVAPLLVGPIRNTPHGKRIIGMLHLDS

B1: Ic_S2_P4E.1_K4.1_C4.1_H4.1_A4.1_[T5C]_[A6C]_F4.1_[T8A]_[A9G]_T4.1 (ssRNA)
RNA: UUUGAUUAAUAUGAUAUCGUUCUUUCUUGUACCUAGUUCUUUCUCGAUAUCAUAUUAAUCUUU
B2: Ic_S2_P4E.1_K4.1_C4.1_H4.1_A4.1_[T5C]_[A6T]_[T7G]_F4.1_[T8G]_[A9T]_T4.1 (ssRNA)
RNA: UUUGAUUAAUAUGAUAUCGUUCUUUCUUGUACUGGUUUCUUUCUCGAUAUCAUAUUAAUCUUU
B3: Ic_S2_P4E.1_K4.1_C4.1_H4.1_A4.1_[T5C]_[A6T]_[T7C]_F4.1_[T8G]_[A9C]_T4.1 (ssRNA)
RNA: UUUGAUUAAUAUGAUAUCGUUCUUUCUUGUACUCGCUUCUUUCUCGAUAUCAUAUUAAUCUUU
B4: Ic_S2_P4E.1_K4.1_C4.1_H4.1_A4.1_[T5C]_[A6C]_F4.1_[A9T]_T4.1 (ssRNA)
RNA: UUUGAUUAAUAUGAUAUCGUUCUUUCUUGUACCUUUUUCUUUCUCGAUAUCAUAUUAAUCUUU
B5: Ic_S2_P4E.1_K4.1_C4.1_H4.1_A4.1_[T5C]_[A6T]_[T7G]_F4.1_[T8C]_[A9T]_T4.1 (ssRNA)
RNA: UUUGAUUAAUAUGAUAUCGUUCUUUCUUGUACUGCUUUCUUUCUCGAUAUCAUAUUAAUCUUU
B6: Ic_S2_P4E.1_K4.1_C4.1_H4.1_A4.1_[T5C]_[A6T]_F4.1_[T8A]_[A9G]_T4.1 (ssRNA)
RNA: UUUGAUUAAUAUGAUAUCGUUCUUUCUUGUACUUAGUUCUUUCUCGAUAUCAUAUUAAUCUUU
B7: Ic_S2_P4E.1_K4.1_C4.1_H4.1_A4.1_[T5C]_[T7C]_F4.1_[T8C]_T4.1 (ssRNA)
RNA: UUUGAUUAAUAUGAUAUCGUUCUUUCUUGUACACCAUUCUUUCUCGAUAUCAUAUUAAUCUUU
B8: Ic_S2_P4E.1_K4.1_C4.1_H4.1_A4.1_[T5C]_[A6T]_F4.1_[T8G]_[A9C]_T4.1 (ssRNA)
RNA: UUUGAUUAAUAUGAUAUCGUUCUUUCUUGUACUUGCUUCUUUCUCGAUAUCAUAUUAAUCUUU
B9: Ic_S2_P4E.1_K4.1_C4.1_H4.1_A4.1_[T5C]_[A6T]_[T7C]_F4.1_[T8C]_[A9T]_T4.1 (ssRNA)
RNA: UUUGAUUAAUAUGAUAUCGUUCUUUCUUGUACUCCUUUCUUUCUCGAUAUCAUAUUAAUCUUU
B10: Ic_S2_P4E.1_K4.1_C4.1_H4.1_A4.1_[T5C]_[T7C]_F4.1_[A9G]_T4.1 (ssRNA)
RNA: UUUGAUUAAUAUGAUAUCGUUCUUUCUUGUACACUGUUCUUUCUCGAUAUCAUAUUAAUCUUU
B11: Ic_S2_P4E.1_K4.1_C4.1_H4.1_A4.1_[T5C]_[A6T]_F4.1_[T8C]_[A9G]_T4.1 (ssRNA)
RNA: UUUGAUUAAUAUGAUAUCGUUCUUUCUUGUACUUCGUUCUUUCUCGAUAUCAUAUUAAUCUUU
B12: Ic_S2_P4E.1_K4.1_C4.1_H4.1_A4.1_[T5C]_[A6T]_F4.1_[T8C]_[A9C]_T4.1 (ssRNA)
RNA: UUUGAUUAAUAUGAUAUCGUUCUUUCUUGUACUUCCUUCUUUCUCGAUAUCAUAUUAAUCUUU
B13: Ic_S2_P4E.1_K4.1_C4.1_H4.1_A4.1_[T5C]_[T7C]_F4.1_[A9C]_T4.1 (ssRNA)
RNA: UUUGAUUAAUAUGAUAUCGUUCUUUCUUGUACACUCUUCUUUCUCGAUAUCAUAUUAAUCUUU
B14: Ic_S2_P4E.1_K4.1_C4.1_H4.1_A4.1_[T5C]_[A6T]_F4.1_[A9T]_T4.1 (ssRNA)
RNA: UUUGAUUAAUAUGAUAUCGUUCUUUCUUGUACUUUUUUCUUUCUCGAUAUCAUAUUAAUCUUU
B15: Ic_S2_P4E.1_K4.1_C4.1_H4.1_A4.1_[T5C]_[A6T]_F4.1_[A9G]_T4.1 (ssRNA)
RNA: UUUGAUUAAUAUGAUAUCGUUCUUUCUUGUACUUUGUUCUUUCUCGAUAUCAUAUUAAUCUUU
B16: Ic_S2_P4E.1_K4.1_C4.1_H4.1_A4.1_[T5C]_[A6T]_[T7G]_F4.1_T4.1 (ssRNA)
RNA: UUUGAUUAAUAUGAUAUCGUUCUUUCUUGUACUGUAUUCUUUCUCGAUAUCAUAUUAAUCUUU
B17: Ic_S2_P4E.1_K4.1_C4.1_H4.1_A4.1_[T5C]_[A6T]_[T7A]_F4.1_[A9C]_T4.1 (ssRNA)
RNA: UUUGAUUAAUAUGAUAUCGUUCUUUCUUGUACUAUCUUCUUUCUCGAUAUCAUAUUAAUCUUU
B18: Ic_S2_P4E.1_K4.1_C4.1_H4.1_A4.1_[T5C]_[A6T]_F4.1_[A9C]_T4.1 (ssRNA)
RNA: UUUGAUUAAUAUGAUAUCGUUCUUUCUUGUACUUUCUUCUUUCUCGAUAUCAUAUUAAUCUUU
B19: Ic_S2_P4E.1_K4.1_C4.1_H4.1_A4.1_[T5C]_[A6T]_[T7A]_F4.1_[T8C]_T4.1 (ssRNA)
RNA: UUUGAUUAAUAUGAUAUCGUUCUUUCUUGUACUACAUUCUUUCUCGAUAUCAUAUUAAUCUUU
B20: Ic_S2_P4E.1_K4.1_C4.1_H4.1_A4.1_[T5C]_[A6T]_F4.1_[T8C]_T4.1 (ssRNA)
RNA: UUUGAUUAAUAUGAUAUCGUUCUUUCUUGUACUUCAUUCUUUCUCGAUAUCAUAUUAAUCUUU
B21: Ic_S2_P4E.1_K4.1_C4.1_H4.1_A4.1_[T5C]_[A6T]_[T7C]_F4.1_[T8A]_[A9T]_T4.1 (ssRNA)
RNA: UUUGAUUAAUAUGAUAUCGUUCUUUCUUGUACUCAUUUCUUUCUCGAUAUCAUAUUAAUCUUU
B22: Ic_S2_P4E.1_K4.1_C4.1_H4.1_A4.1_[T5C]_[T7G]_F4.1_[T8C]_T4.1 (ssRNA)
RNA: UUUGAUUAAUAUGAUAUCGUUCUUUCUUGUACAGCAUUCUUUCUCGAUAUCAUAUUAAUCUUU

target: T1, PUF4 RNA-binding domain; experiment: Mg; RNA-MaP; 20 mM Na-HEPES pH 7.4, 30 mM KOAc, 0.75 mM MgCl2, 0.1% Tween-20, 5% glycerol, 0.1 mg/mL BSA, 2 mM DTT; 25 C; 0.0125-409.6 nM protein; conditions: tags: N-His6-TEV cleaved; C-SNAP kept, Cy3B-labelled; label: tethered on chip by stalled RNA polymerase

Q: For UCUCUUUGUUUUUAUCUCUU (ssRNA) [Ib_S1_P3E.1_K3.1_C3.1_H3.1_[A4T]_A3.1_[A6T]_F3.1_T3.1], which Kd is on record?
A: 1670 nM

Q: How did the Kd turn out when B1 was run?
A: 77.3 nM

Q: How did the Kd turn out when B2 was run?
A: 966 nM

Q: B3 was tested. Which Kd did it give?
A: 879 nM

Q: With B4 as the binder, how does the Kd read?
A: 6.99 nM

Q: B5 was tested. Which Kd did it give?
A: 157 nM

Q: How did the Kd turn out when B6 was run?
A: 141 nM

Q: With B7 as the binder, how does the Kd read?
A: 14 nM

Q: Which Kd does the source give for B8 here?
A: 365 nM

Q: With B9 as the binder, how does the Kd read?
A: 103 nM

Q: B10 was tested. Which Kd did it give?
A: 2.73 nM

Q: How did the Kd turn out when B11 was run?
A: 110 nM

Q: How did the Kd turn out when B12 was run?
A: 102 nM

Q: How did the Kd turn out when B13 was run?
A: 5.21 nM

Q: For B14, which Kd is on record?
A: 9.78 nM

Q: With B15 as the binder, how does the Kd read?
A: 13.1 nM

Q: B16 was tested. Which Kd did it give?
A: 2.61 nM

Q: For B17, which Kd is on record?
A: 9.16 nM

Q: Which Kd does the source give for B18 here?
A: 13.3 nM

Q: With B19 as the binder, how does the Kd read?
A: 353 nM

Q: With B20 as the binder, how does the Kd read?
A: 53.5 nM

Q: For B21, which Kd is on record?
A: 68.6 nM

Q: How did the Kd turn out when B22 was run?
A: 206 nM
